Data as given in patent publication EP2938355B1, “MONOVALENT AND MULTIVALENT LEISHMANIA VACCINES” (VIRBAC S.A., priority 2012, dated 2014).
Where a chain is given by its changes, count along the chain named. pIC50: −log10 of the molar value.

Assays:
Experiment in all cases: Competition binding to HLA class II molecule against reference peptide
Parameters in all cases: species or system Homme
HLA-DRB5 = HLA-DRB5 (Homo sapiens, UniProt P01903+Q30154); conditions: for activité relative (ratio moyenne IC50 peptide testé / moyenne IC50 peptide de référence): lower ratio = better affinity
Text: (§1) Les tableaux 7 et 8 ci-dessous représentent la concentration en peptide compétiteur (nM) (SEQ ID N°9 ou SEQ ID N°10) pour laquelle 50% de la liaison du peptide de référence aux molécules HLA-DRB1 et aux molécules HLADRB3, -DRB4, -DRB5 et HLA-DP4, est inhibée (IC50).
(§2) Pour chacun des tableaux 7 et 8, les résultats sont issus de deux expériences indépendantes. Tableau 7 :
(§3) Comme pour les résultats présentés ci-dessus, le tableau 8 illustre l'ensemble des valeurs d'IC50 obtenues pour les deux peptides testés et leur peptide de référence comme contrôle interne, pour la liaison aux molécules HLA-DRB3, -DRB4, -DRB5 et aux molécules HLA-DP401 et -DP402. Tableau 8 =:
(§4) Le tableau 9 ci-dessous illustre l'activité relative des deux composés peptidiques SEQ ID N°9 et 10 pour les molécules HLA-DR, HLA-DRB et HLA-DP4 étudiées. L'activité relative est calculée à partir des deux tableaux 7 et 8 ci-dessus de la façon suivante : Ratio = (moyenne des valeurs d'IC50 obtenues pour le peptide testé)/(moyenne des valeurs d'IC50 obtenues avec le peptide de référence). Tableau 9 :
(§5) Dans ce tableau 9, l'activité relative est définie par le ratio obtenu entre la moyenne des IC50 calculée avec le peptide compétiteur et la moyenne des IC50 calculée avec le peptide de référence. L'activité relative permet ainsi de comparer les propriétés de liaison du peptide testé à celle du peptide de référence qui correspond au peptide qui lie de façon la plus efficace une molécule HLA donnée. Ainsi, une activité relative de 2 signifie que le peptide testé lie 2 fois moins efficacement la molécule HLA étudiée que le peptide de référence. Ainsi, plus le ratio est faible, meilleure est l'affinité du peptide pour la molécule HLA considérée.

HLA-DP401 = target: T1, HLA-DP401 (Homo sapiens, UniProt P04440+P20036); conditions: lower ratio = better affinity
T1 sequence (P04440 30-258): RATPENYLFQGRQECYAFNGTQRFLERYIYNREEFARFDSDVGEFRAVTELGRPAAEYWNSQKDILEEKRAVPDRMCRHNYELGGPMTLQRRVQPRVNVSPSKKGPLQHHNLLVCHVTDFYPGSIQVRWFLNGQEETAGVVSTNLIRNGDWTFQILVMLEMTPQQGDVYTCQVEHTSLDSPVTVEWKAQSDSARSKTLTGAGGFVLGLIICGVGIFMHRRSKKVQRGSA
T1 sequence (P20036 32-260 limits assumed): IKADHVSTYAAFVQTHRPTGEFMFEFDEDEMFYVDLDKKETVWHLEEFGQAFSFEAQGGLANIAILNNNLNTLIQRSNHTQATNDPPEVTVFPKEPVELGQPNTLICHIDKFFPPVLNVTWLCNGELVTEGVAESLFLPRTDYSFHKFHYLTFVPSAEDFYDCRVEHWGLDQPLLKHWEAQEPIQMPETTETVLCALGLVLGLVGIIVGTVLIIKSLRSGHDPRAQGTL
Text: as §1, §2, §3, §4, §5

HLA-DP402 = target: T2, HLA-DP402 (Homo sapiens, UniProt P04440+P20036, A65V/A84D/A85E); conditions: lower ratio = better affinity
T2 sequence (P04440 30-258 A65V/A84D/A85E): T1 sequence (P04440 30-258) with A36V, A55D, A56E
T2 sequence (P20036 29-260): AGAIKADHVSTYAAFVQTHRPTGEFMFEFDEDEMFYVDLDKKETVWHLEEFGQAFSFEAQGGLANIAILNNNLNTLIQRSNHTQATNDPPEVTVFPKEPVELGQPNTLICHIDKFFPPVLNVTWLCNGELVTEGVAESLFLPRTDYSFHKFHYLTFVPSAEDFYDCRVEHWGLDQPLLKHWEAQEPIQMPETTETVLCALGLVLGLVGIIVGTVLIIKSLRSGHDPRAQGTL
Text: as §1, §2, §3, §4, §5

HLA-DRB4 = HLA-DRB4 (Homo sapiens, UniProt P01903+P13762); conditions: lower ratio = better affinity
Text: as §1, §2, §3, §4, §5

HLA-DRB3 = HLA-DRB3 (Homo sapiens, UniProt P01903+P79483); conditions: for activité relative (ratio moyenne IC50 peptide testé / moyenne IC50 peptide de référence): DRB3, lower ratio = better affinity; for affinité de liaison (in words): HLADRB3
Text: as §1, §2, §3, §4, §5

HLA-DR7 = HLA-DR7 (Homo sapiens, UniProt P01903+P01911); conditions: for activité relative (ratio moyenne IC50 peptide testé / moyenne IC50 peptide de référence): DR7, lower ratio = better affinity
Text: as §1, §2
(§6) Les valeurs indiquées correspondent aux IC50 obtenus pour chaque peptide étudié.
(§7) Plus la valeur de l'IC50 est faible, meilleure est l'affinité du peptide pour la molécule HLA étudiée. Ainsi, il est important de noter que les peptides de référence n'ont pas tous la même capacité de liaison selon la molécule HLA considérée. Ces valeurs correspondent aux valeurs standards attendues.
as §4, §5

HLA-DR1 = HLA-DR1 (Homo sapiens, UniProt P01903+P01911); conditions: for activité relative (ratio moyenne IC50 peptide testé / moyenne IC50 peptide de référence): DR1, lower ratio = better affinity
Text: as §1, §2, §6, §7, §4, §5

HLA-DR3 = HLA-DR3 (Homo sapiens, UniProt P01903+P01911); conditions: for activité relative (ratio moyenne IC50 peptide testé / moyenne IC50 peptide de référence): lower ratio = better affinity; for affinité de liaison (in words): HLA-DR3
Text: as §1, §2, §6, §7, §4, §5

HLA-DR4 = HLA-DR4 (Homo sapiens, UniProt P01903+P01911); conditions: lower ratio = better affinity
Text: as §1, §2, §6, §7, §4, §5

HLA-DR13 = HLA-DR13 (Homo sapiens, UniProt P01903+P01911); conditions: lower ratio = better affinity
Text: as §1, §2, §6, §7, §4, §5

HLA-DR11 = HLA-DR11 (Homo sapiens, UniProt P01903+P01911); conditions: lower ratio = better affinity
Text: as §1, §2, §6, §7, §4, §5

HLA-DR15 = HLA-DR15 (Homo sapiens, UniProt P01903+P01911); conditions: lower ratio = better affinity
Text: as §1, §2, §6, §7, §4, §5

Substance: TNTLAVLQAFGRAIPELGKKW (TNTLAVLQAFGRAIPELGKKW) [SEQ ID N°9]
- affinité de liaison (in words) (HLA-DRB5): affinité de liaison élevée
- activité relative (ratio moyenne IC50 peptide testé / moyenne IC50 peptide de référence) (HLA-DRB5): 0,9
- activité relative (ratio moyenne IC50 peptide testé / moyenne IC50 peptide de référence) (HLA-DP401): >3727
- activité relative (ratio moyenne IC50 peptide testé / moyenne IC50 peptide de référence) (HLA-DP402): >2222
- activité relative (ratio moyenne IC50 peptide testé / moyenne IC50 peptide de référence) (HLA-DRB4): 1331
- activité relative (ratio moyenne IC50 peptide testé / moyenne IC50 peptide de référence) (HLA-DRB3): >274
- affinité de liaison (in words) (HLA-DRB3): n'est pas actif
- activité relative (ratio moyenne IC50 peptide testé / moyenne IC50 peptide de référence) (HLA-DR7): 3
- affinité de liaison (in words) (HLA-DR7; HLA-DR7): affinité de liaison élevée
- activité relative (ratio moyenne IC50 peptide testé / moyenne IC50 peptide de référence) (HLA-DR1): 1
- affinité de liaison (in words) (HLA-DR1; HLA-DR1): affinité de liaison élevée
- activité relative (ratio moyenne IC50 peptide testé / moyenne IC50 peptide de référence) (HLA-DR3; DR3): >187
- affinité de liaison (in words) (HLA-DR3): n'est pas actif
- activité relative (ratio moyenne IC50 peptide testé / moyenne IC50 peptide de référence) (HLA-DR4): 2
- activité relative (ratio moyenne IC50 peptide testé / moyenne IC50 peptide de référence) (HLA-DR13): 41
- activité relative (ratio moyenne IC50 peptide testé / moyenne IC50 peptide de référence) (HLA-DR11): 3
- activité relative (ratio moyenne IC50 peptide testé / moyenne IC50 peptide de référence) (HLA-DR15): 5

Substance: EGYFVTDEKTGLVYRDGGVAAASSG (EGYFVTDEKTGLVYRDGGVAAASSG) [SEQ ID N°10]
- activité relative (ratio moyenne IC50 peptide testé / moyenne IC50 peptide de référence) (HLA-DRB5): 688
- activité relative (ratio moyenne IC50 peptide testé / moyenne IC50 peptide de référence) (HLA-DP401): 5556
- activité relative (ratio moyenne IC50 peptide testé / moyenne IC50 peptide de référence) (HLA-DP402): 2000
- activité relative (ratio moyenne IC50 peptide testé / moyenne IC50 peptide de référence) (HLA-DRB4): >9535
- activité relative (ratio moyenne IC50 peptide testé / moyenne IC50 peptide de référence) (HLA-DRB3): 5
- affinité de liaison (in words) (HLA-DRB3): bonne affinité de liaison
- activité relative (ratio moyenne IC50 peptide testé / moyenne IC50 peptide de référence) (HLA-DR7): 928
- activité relative (ratio moyenne IC50 peptide testé / moyenne IC50 peptide de référence) (HLA-DR1): 271
- activité relative (ratio moyenne IC50 peptide testé / moyenne IC50 peptide de référence) (HLA-DR3; DR3): 0,2
- pIC50 (HLA-DR3; DR3, two independent experiments, one line each, read-out: IC50 (concentration en peptide compétiteur pour laquelle 50% de la liaison du peptide de référence est inhibée)): 7.46
- affinité de liaison (in words) (HLA-DR3): bonne affinité de liaison
- activité relative (ratio moyenne IC50 peptide testé / moyenne IC50 peptide de référence) (HLA-DR4): 2
- activité relative (ratio moyenne IC50 peptide testé / moyenne IC50 peptide de référence) (HLA-DR13): 18
- activité relative (ratio moyenne IC50 peptide testé / moyenne IC50 peptide de référence) (HLA-DR11): 3
- activité relative (ratio moyenne IC50 peptide testé / moyenne IC50 peptide de référence) (HLA-DR15): 1
